Tests used:
[1] = biological target: T1, TP53 (recombinant human, Calbiochem 506165) (human, UniProt P04637 1-393); assay: EMSA; anti-TP53 antibody tested; EMSA as in a cited earlier paper; buffer, salt, pH and temperature not given; competitor 100x excess added 10 min before probe; antibody preincubation 1 h on ice; details: protein: commercial; chain copies: 4; label: 32P (Klenow fill-in with [alpha-32P]-dCTP); 5' overhang 1 nt (G) on strand 2, filled in with labelled dC
[2] = biological target: T1, TP53 (recombinant human, Calbiochem …); assay: EMSA; shifted band faded by anti-TP53 antibody; EMSA as in a cited earlier paper; buffer, salt, pH and temperature not given; competitor 100x excess added 10 min before probe; antibody preincubation 1 h on ice; details: protein: commercial; chain copies: 4; label: 32P (Klenow fill-in with [alpha-32P]-dCTP); 5' overhang 1 nt (G) on strand 1, filled in with labelled dC

T1 sequence (P04637 whole entry): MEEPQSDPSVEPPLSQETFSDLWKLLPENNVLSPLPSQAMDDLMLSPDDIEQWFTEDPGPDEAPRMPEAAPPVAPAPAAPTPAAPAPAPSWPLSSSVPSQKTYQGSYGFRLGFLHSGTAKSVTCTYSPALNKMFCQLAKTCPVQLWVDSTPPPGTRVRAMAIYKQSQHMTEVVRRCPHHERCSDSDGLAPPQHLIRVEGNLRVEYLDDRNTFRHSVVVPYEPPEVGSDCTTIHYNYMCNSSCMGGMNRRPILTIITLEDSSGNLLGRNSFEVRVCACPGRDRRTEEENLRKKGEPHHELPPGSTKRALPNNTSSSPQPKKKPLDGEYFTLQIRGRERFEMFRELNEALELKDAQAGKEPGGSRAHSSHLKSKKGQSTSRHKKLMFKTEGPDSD

B1: TP53 probe (putative TP53 site, Panomics) (dsDNA)
DNA 1: TACAGAACATGTCTAAGCATGCTGGGG
DNA 2: GCCCCAGCATGCTTAGACATGTTCTGTA
Question: Does B1 bind [1]?
Answer: binds

B2: wtFOXA1 probe (dsDNA)
DNA 1: GGAAAGTGCAAGTCTGGACATGTTTATCAAGAGG
DNA 2: CCTCTTGATAAACATGTCCAGACTTGCACTTTC
Question: Does B2 bind [2]?
Answer: binds

— paper PMC7522722, “Differential epigenetic regulation between the alternative promoters, PRDM1α and PRDM1β, of the tumour suppressor gene PRDM1 in human multiple myeloma cells”
